T1: WWOX WW1 domain (amino acid 16-50) (human, UniProt Q9NZC7 16-50)
T1 chain (looked up): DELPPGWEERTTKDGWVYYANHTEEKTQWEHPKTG

T2: WWOX WW2 domain (amino acid 57-91) (human, UniProt Q9NZC7 57-91)
T2 chain (looked up): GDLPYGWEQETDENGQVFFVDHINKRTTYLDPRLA

T3: WWOX tandem WW1-WW2 domains (amino acid 16-91) (human, UniProt Q9NZC7 16-91)
T3 sequence (looked up): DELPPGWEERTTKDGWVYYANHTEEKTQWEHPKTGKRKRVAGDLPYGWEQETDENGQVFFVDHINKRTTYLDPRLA


Legend:
[1] = molecular target: WWOX tandem WW1-WW2 domains (amino acid 16-91) (human) (UniProt Q9NZC7); test: ITC
[2] = molecular target: WWOX tandem WW1-WW2 domains (amino acid 16-91) (human) (UniProt Q9NZC7); test: NMR titration
[3] = molecular target: T1, WWOX WW1 domain (amino acid 16-50); test: ITC
[4] = molecular target: T2, WWOX WW2 domain (amino acid 57-91); test: ITC
[5] = molecular target: T3, WWOX tandem WW1-WW2 domains (amino acid …); test: ITC

Kd [1] [µM]	Molecule	further results
> 100	ErbB4 single-motif peptide PY2	–
14	ErbB4 double-motif peptide PY1PY2 (natural linker)	apparent KD, WW2 site [2]: 1000 µM
27	PY3AY3, PY3PY3 peptide with PP-to-AA mutations in the C-terminal motif	–
> 100	ErbB4 single-motif peptide PY1	–
–	KPGTVLPPPPYRHRN (peptide, UniProt Q15303 1291-1305, looked up) [ErbB4 1291-1305 (PY3) single-motif peptide]	Kd [3]: 78 µM; Kd [4]: > 200 µM; Kd [5]: 30 µM
